{"source": "FireProtDB (doi:10.1016/j.jmb.2003.08.024)", "parents": {"B1": {"name": "Ribonuclease, P00648 (parent)", "chain": "MMKMEGIALKKRLSWISVCLLVLVSAAGMLFSTAAKTETSSHKAHTEAQVINTFDGVADYLQTYHKLPDNYITKSEAQALGWVASKGNLADVAPGKSIGGDIFSNREGKLPGKSGRTWREADINYTSGFRNSDRILYSSDWLIYKTTDHYQTFTKIR"}}, "variants_of": "B1", "conditions": "Bacillus amyloliquefaciens, GdnHCl, Hydrogen exchange, HCl 27.5 mM, reversible: yes, structure 1BNI, whole UniProt chain shown"}
{"variant": "MMKMEGIALKKRLSWISVCLLVLVSAAGMLFSTAAKTETSSHKAHTEAQVINTFDGVADYLQTYHKLPDNYITKSEAQALGWVASKGNLADVAPGKSIGGDIFSNREGKLPGKSGRTWREADINYTSGFRNSDRILYASDWLIYKTTDHYQTFTKIR", "values": [{"measurement": "ddG of mutation (higher = less stable)", "setting": "pH 6.8, 30 °C, Imidazole 50 mM", "result": 1.8, "unit": "kcal/mol"}, {"measurement": "denaturant m value", "setting": "pH 6.8, 30 °C, Imidazole 50 mM", "result": 4.91, "unit": "kcal/mol/M"}]}
{"variant": "MMKMEGIALKKRLSWISVCLLVLVSAAGMLFSTAAKTETSSHKAHTEAQVINTFDGVADYLQTYHKLPDNYITKSEAQALGWVASKGNLCDVAPGKSIGGDIFSNREGKLPGKSGRTWREADINYTCGFRNSDRILYSSDWLIYKTTDHYQTFTKIR", "values": [{"measurement": "ddG of mutation (higher = less stable)", "setting": "pH 7.5, 25 °C, Imidazole 50 mM", "result": -1.9, "unit": "kcal/mol"}, {"measurement": "denaturant m value", "setting": "pH 7.5, 25 °C, Imidazole 50 mM", "result": 4.91, "unit": "kcal/mol/M"}, {"measurement": "ddG of mutation (higher = less stable)", "setting": "pH 7.6, 37 °C, Imidazole 50 mM", "result": -1.9, "unit": "kcal/mol"}, {"measurement": "denaturant m value", "setting": "pH 7.6, 37 °C, Imidazole 50 mM", "result": 4.91, "unit": "kcal/mol/M"}, {"measurement": "ddG of mutation (higher = less stable)", "setting": "pH 7.9, 37 °C, Tris 50 mM", "result": -1.8, "unit": "kcal/mol"}, {"measurement": "denaturant m value", "setting": "pH 7.9, 37 °C, Tris 50 mM", "result": 4.91, "unit": "kcal/mol/M"}]}
{"variant": "MMKMEGIALKKRLSWISVCLLVLVSAAGMLFSTAAKTETSSHKAHTEAQVINTFDGVADYLQTYHKLPDNYITKSEAQALGWVASKGNLADVAPGKSIGGDIFSAREGKLPGKSGRTWREADINYTSGFRNSDRILYSSDWLIYKTTDHYQTFTKIR", "values": [{"measurement": "ddG of mutation (higher = less stable)", "setting": "pH 6.8, 30 °C, Imidazole 50 mM", "result": 1.8, "unit": "kcal/mol"}, {"measurement": "denaturant m value", "setting": "pH 6.8, 30 °C, Imidazole 50 mM", "result": 4.91, "unit": "kcal/mol/M"}]}
{"variant": "MMKMEGIALKKRLSWISVCLLVLVSAAGMLFSTAAKTETSSHKAHTEAQVINTFDGVADYLQTYHKLPDNYITKSEAQALGWVASKGNLADVAPGKSIGGDIFSNREGKLPGKSGRTWREADINYTSGFRNCDRILYSSDWLIYKTTDCYQTFTKIR", "values": [{"measurement": "ddG of mutation (higher = less stable)", "setting": "pH 7.5, 25 °C, Imidazole 50 mM", "result": -4.3, "unit": "kcal/mol"}, {"measurement": "denaturant m value", "setting": "pH 7.5, 25 °C, Imidazole 50 mM", "result": 4.91, "unit": "kcal/mol/M"}, {"measurement": "ddG of mutation (higher = less stable)", "setting": "pH 7.6, 37 °C, Imidazole 50 mM", "result": -4.6, "unit": "kcal/mol"}, {"measurement": "denaturant m value", "setting": "pH 7.6, 37 °C, Imidazole 50 mM", "result": 4.91, "unit": "kcal/mol/M"}, {"measurement": "ddG of mutation (higher = less stable)", "setting": "pH 7.9, 37 °C, Tris 50 mM", "result": -4.5, "unit": "kcal/mol"}, {"measurement": "denaturant m value", "setting": "pH 7.9, 37 °C, Tris 50 mM", "result": 4.91, "unit": "kcal/mol/M"}]}
